For experiment [1], the target named is CHS-syfp2 fusion (Arabidopsis) (UniProt P13114). Briefly: FRET or BRET; frequency domain FLIM-FRET in Arabidopsis tt4-11 mesophyll protoplasts; donor MOS9-scfp3a, acceptor SYFP2 fusions; E from phase-shift lifetimes.
Experiment [2] deals with T1, recombinant chalcone synthase (CHS) (Arabidopsis, UniProt P13114 1-395).
T1 construct: chalcone synthase (CHS), Arabidopsis, At5g13930; The construct for recombinant CHS is not described; earlier work of the same laboratory may hold it (possibly with a carrier protein); also called recombinant CHS; source: E. coli BL21 (DE3) pLysS, purified (nickel column, FPLC)
T1 sequence (looked up): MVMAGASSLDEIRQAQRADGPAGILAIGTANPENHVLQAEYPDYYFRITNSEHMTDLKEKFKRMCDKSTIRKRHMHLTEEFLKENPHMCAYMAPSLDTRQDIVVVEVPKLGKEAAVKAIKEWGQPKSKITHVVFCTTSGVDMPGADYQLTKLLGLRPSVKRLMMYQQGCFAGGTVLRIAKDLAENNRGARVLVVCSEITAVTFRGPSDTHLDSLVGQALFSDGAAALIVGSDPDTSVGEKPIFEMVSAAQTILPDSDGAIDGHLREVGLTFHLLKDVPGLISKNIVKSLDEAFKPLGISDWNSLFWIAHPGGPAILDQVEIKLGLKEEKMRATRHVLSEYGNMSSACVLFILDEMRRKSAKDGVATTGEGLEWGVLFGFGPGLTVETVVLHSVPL
Briefly: SPR; CHS immobilised by amine coupling on a planar PEG/carboxyl chip (Reichert SR7000); MOS9 0.1-1 uM flowed over in 10 mM HEPES pH 7.5, 150 mM NaCl, 1 mg/ml BSA, 50 ul/min; KD from Koff/Kon. The settings on record: both partners purified.

Consider two molecules from publication PMC6151112, “Identification of MOS9 as an interaction partner for chalcone synthase in the nucleus” (PeerJ, 2018).

MOS9-scfp3a fusion (natural protein): the FRET efficiency E τ(φ) in experiment [1] came out at 6.5%.

B1: MOS9::V5::6xHis recombinant protein (natural protein, Arabidopsis, UniProt F4IDT4 1-193, looked up)
chain: MMGMARKISKEEVVEKLKDDGDFDRLRLKIIRRLKENEDLRNNMISVVKESTSLKRHGAQNMKTRQLSDAIFEEVGSKMLSQLSDGLWGIIRSEDGMKNEIRETVQSVYATLSNPRGEKRGTSAREMEHKIPTPKKEARTDFNTSPASKQKQELIKGAVEDNKGEACSDDVQDNKGEAYNDDEEDPELPPGFG
notes: MOS9, Arabidopsis, At1g12530, coding region minus the stop codon (193 amino acids), from clone pENTR221-AT1G12530, recombined into pET-DEST42; Gateway recombination leaves linker residues between MOS9 and the tags; also called At1g12530 protein; recombinant protein generated in E. coli from At1g12530 cDNA; source: E. coli BL21 (DE3) pLysS, purified (nickel column, FPLC); not shown: V5, …
Consider B1, for which the Kd in experiment [2] came to 210 nM.
